First the molecules themselves.
B1: GAS2-like protein 1, residues 209 to 276; numbered along this chain, Q99501 (parent)
chain: DELVREILGRCTCPDQFPMIKVSEGKYRVGDSSLLIFVRVLRSHVMVRVGGGWDTLEHYLDKHDPCRC

± gives the uncertainty stated by the source.

Variants of B1 are the subject of the data set. The data set is described as follows: abundance fitness (aPCA) (normalised: wild type 0, dead -1); higher = more abundant; growth selection in yeast, the domain comes from the species named. The settings on record: Homo sapiens.
Consider DELVREILGRCTCPDQFPMIKVSEGKYRVGDSSLLIFVRVLGSHVMVRVGGGWDTLEHYLDKHDPCRC [R42G], for which the abundance fitness came out at 0.121 ± 0.05.
On to DELVREILGRCTCPDQFPMIKVSEGKYRVGDSSLLIFVRVLWSHVMVRVGGGWDTLEHYLDKHDPCRC [R42W], for which the abundance fitness is -0.289 ± 0.08.
The value for DELVREILGRCTCPDQFPMIKVSEGKYRVGDSSLLIFVRVLASHVMVRVGGGWDTLEHYLDKHDPCRC [R42A] was -0.066 ± 0.068; that for DELVREILGRCTCPDQFPMIKVSEGKYRVGDSSLLIFVRVLESHVMVRVGGGWDTLEHYLDKHDPCRC [R42E] was -0.136 ± 0.11; that for DELVREILGRCTCPDQFPMIKVSEGKYRVGDSSLLIFVRVLCSHVMVRVGGGWDTLEHYLDKHDPCRC [R42C] was -0.187 ± 0.069.
On to DELVREILGRCTCPDQFPMIKVSEGKYRVGDSSLLIFVRVLFSHVMVRVGGGWDTLEHYLDKHDPCRC [R42F], for which the abundance fitness was -0.246 ± 0.074.
The value for DELVREILGRCTCPDQFPMIKVSEGKYRVGDSSLLIFVRVLYSHVMVRVGGGWDTLEHYLDKHDPCRC [R42Y] was -0.155 ± 0.069; that for DELVREILGRCTCPDQFPMIKVSEGKYRVGDSSLLIFVRVLSSHVMVRVGGGWDTLEHYLDKHDPCRC [R42S] was -0.143 ± 0.072; that for DELVREILGRCTCPDQFPMIKVSEGKYRVGDSSLLIFVRVLMSHVMVRVGGGWDTLEHYLDKHDPCRC [R42M] was -0.1 ± 0.088.
Take DELVREILGRCTCPDQFPMIKVSEGKYRVGDSSLLIFVRVLHSHVMVRVGGGWDTLEHYLDKHDPCRC [R42H]: the abundance fitness was determined as 0.074 ± 0.067.
Turning to DELVREILGRCTCPDQFPMIKVSEGKYRVGDSSLLIFVRVLPSHVMVRVGGGWDTLEHYLDKHDPCRC [R42P], the abundance fitness is -0.424 ± 0.2.
Turning to DELVREILGRCTCPDQFPMIKVSEGKYRVGDSSLLIFVRVLRSAVMVRVGGGWDTLEHYLDKHDPCRC [H44A], the abundance fitness was -0.001 ± 0.071.
The value for DELVREILGRCTCPDQFPMIKVSEGKYRVGDSSLLIFVRVLRSNVMVRVGGGWDTLEHYLDKHDPCRC [H44N] was -0.376 ± 0.25; that for DELVREILGRCTCPDQFPMIKVSEGKYRVGDSSLLIFVRVLRSKVMVRVGGGWDTLEHYLDKHDPCRC [H44K] was 0.007 ± 0.1.
The value for DELVREILGRCTCPDQFPMIKVSEGKYRVGDSSLLIFVRVLRSCVMVRVGGGWDTLEHYLDKHDPCRC [H44C] was -0.182 ± 0.18; that for DELVREILGRCTCPDQFPMIKVSEGKYRVGDSSLLIFVRVLRSEVMVRVGGGWDTLEHYLDKHDPCRC [H44E] was 0.222 ± 0.066.
DELVREILGRCTCPDQFPMIKVSEGKYRVGDSSLLIFVRVLRSGVMVRVGGGWDTLEHYLDKHDPCRC [H44G]: the abundance fitness was found to be 0.064 ± 0.073.
DELVREILGRCTCPDQFPMIKVSEGKYRVGDSSLLIFVRVLRSFVMVRVGGGWDTLEHYLDKHDPCRC [H44F]: the abundance fitness was -0.532 ± 0.13.
Turning to DELVREILGRCTCPDQFPMIKVSEGKYRVGDSSLLIFVRVLRSSVMVRVGGGWDTLEHYLDKHDPCRC [H44S], the abundance fitness was found to be 0.099 ± 0.074.
The value for DELVREILGRCTCPDQFPMIKVSEGKYRVGDSSLLIFVRVLRSRVMVRVGGGWDTLEHYLDKHDPCRC [H44R] was 0.142 ± 0.055.
With DELVREILGRCTCPDQFPMIKVSEGKYRVGDSSLLIFVRVLRSTVMVRVGGGWDTLEHYLDKHDPCRC [H44T], the abundance fitness came to 0.074 ± 0.061.
For the variant DELVREILGRCTCPDQFPMIKVSEGKYRVGDSSLLIFVRVLRSDVMVRVGGGWDTLEHYLDKHDPCRC [H44D], the abundance fitness was -0.004 ± 0.066.
With DELVREILGRCTCPDQFPMIKVSEGKYRVGDSSLLIFVRVLRSPVMVRVGGGWDTLEHYLDKHDPCRC [H44P], the abundance fitness is -0.731 ± 0.11.
The value for DELVREILGRCTCPDQFPMIKVSEGKYRVGDSSLLIFVRVLRSYVMVRVGGGWDTLEHYLDKHDPCRC [H44Y] was -0.515 ± 0.12.
With DELVREILGRCTCPDQFPMIKVSEGKYRVGDSSLLIFVRVLRSLVMVRVGGGWDTLEHYLDKHDPCRC [H44L], the abundance fitness is -0.341 ± 0.092.
Regarding DELVREILGRCTCPDQFPMIKVSEGKYRVGDSSLLIFVRVLRSMVMVRVGGGWDTLEHYLDKHDPCRC [H44M], the abundance fitness came to 0.131 ± 0.092.
The value for DELVREILGRCTCPDQFPMIKVSEGKYRVGDSSLLIFVRVLRSQVMVRVGGGWDTLEHYLDKHDPCRC [H44Q] was 0.103 ± 0.094.
The value for DELVREILGRCTCPDQFPMIKVSEGKYRVGDSSLLIFVRVLRSHFMVRVGGGWDTLEHYLDKHDPCRC [V45F] was -0.927 ± 0.23.
The value for DELVREILGRCTCPDQFPMIKVSEGKYRVGDSSLLIFVRVLRSHMMVRVGGGWDTLEHYLDKHDPCRC [V45M] was -0.505 ± 0.13; that for DELVREILGRCTCPDQFPMIKVSEGKYRVGDSSLLIFVRVLRSHWMVRVGGGWDTLEHYLDKHDPCRC [V45W] was -0.804 ± 0.23.
For the variant DELVREILGRCTCPDQFPMIKVSEGKYRVGDSSLLIFVRVLRSHCMVRVGGGWDTLEHYLDKHDPCRC [V45C], the abundance fitness was -0.227 ± 0.092.
The value for DELVREILGRCTCPDQFPMIKVSEGKYRVGDSSLLIFVRVLRSHAMVRVGGGWDTLEHYLDKHDPCRC [V45A] was -0.141 ± 0.13; that for DELVREILGRCTCPDQFPMIKVSEGKYRVGDSSLLIFVRVLRSHQMVRVGGGWDTLEHYLDKHDPCRC [V45Q] was -0.919 ± 0.14.
The value for DELVREILGRCTCPDQFPMIKVSEGKYRVGDSSLLIFVRVLRSHRMVRVGGGWDTLEHYLDKHDPCRC [V45R] was -0.847 ± 0.14; that for DELVREILGRCTCPDQFPMIKVSEGKYRVGDSSLLIFVRVLRSHHMVRVGGGWDTLEHYLDKHDPCRC [V45H] was -0.693 ± 0.15.
The value for DELVREILGRCTCPDQFPMIKVSEGKYRVGDSSLLIFVRVLRSHPMVRVGGGWDTLEHYLDKHDPCRC [V45P] was -0.169 ± 0.098; that for DELVREILGRCTCPDQFPMIKVSEGKYRVGDSSLLIFVRVLRSHIMVRVGGGWDTLEHYLDKHDPCRC [V45I] was -0.076 ± 0.055; that for DELVREILGRCTCPDQFPMIKVSEGKYRVGDSSLLIFVRVLRSHSMVRVGGGWDTLEHYLDKHDPCRC [V45S] was -0.937 ± 0.21.
DELVREILGRCTCPDQFPMIKVSEGKYRVGDSSLLIFVRVLRSHLMVRVGGGWDTLEHYLDKHDPCRC [V45L]: the abundance fitness was -0.328 ± 0.054.
The value for DELVREILGRCTCPDQFPMIKVSEGKYRVGDSSLLIFVRVLRSHVMARVGGGWDTLEHYLDKHDPCRC [V47A] was -0.429 ± 0.051.

These data come from the Human Domainome abundance scans (Beltran et al. 2025).
